This data set concerns the molecule itself. The experiment in a line: SEC.

This note sets out measurements from PMC3019263 (Archives of biochemistry and biophysics, 2010).

B1: PheH117, the regulatory domain of rat phenylalanine hydroxylase, lacking residues after Thr117 (domain or fragment, UniProt P04176 1-117, looked up)
chain: MAAVVLENGVLSRKLSDFGQETSYIEDNSNQNGAISLIFSLKEEVGALAKVLRLFEENDINLTHIESRPSRLNKDEYEFFTYLDKRTKPVLGSIIKSLRNDIGATVHELSRDKEKNT
In the case of B1, the stoichiometry N (in general, a count of units in the complex or per binding partner) came to 2.
